# Tested on: CCCCC(=O)Oc1ccc([N+](=O)[O-])cc1
# Assay: purified protein
# Details: pH 7.5, 14.5 mM Tris-HCl, 0.75% glycerol, 0.5% Triton X, 1.1 µM enzyme
substance,measurement,value
F. solani cutinase (Fusarium vanettenii),Km,1.48 ± 0.56 µM
same,kcat/Km,10200 ± 6670 M⁻¹ s⁻¹

# Source: publication PMC2796240
